Measurements published in article PMC3355127.

Columns and labels:
[1] = whole-blood perfusion over collagen, 2500 s-1, platelet coverage; settings: glycan lost; control: blood of WT-VWF expressing mice
[2] = SDS/2% agarose multimer gel of plasma, densitometry; settings: glycan lost; control: WT mVwf cDNA
[3] = plasma VWF:Ag ELISA after hydrodynamic injection in VWF-/- mice; settings: glycan lost; control: WT mVwf cDNA
[4] = VWF antigen ELISA, COS-7 lysate (intracellular retention); settings: glycan lost; control: WT mVwf
[5] = VWF antigen ELISA, COS-7 supernatant; settings: glycan lost; control: WT mVwf
[6] = in vivo NHS-biotin labelling, residual biotinylated VWF in plasma; settings: glycan lost; control: WT-mVWF

murine VWF (mVWF): S1486A
other: thrombus formation on collagen under flow, other: platelet surface coverage [1]: decreases, 11.6±1.0 vs 15.8±0.9
oligomerisation [2]: no change
expression_or_secretion, other: VWF:Ag, % of normal murine plasma [3]: no change

murine VWF (mVWF): S1486A/S1487A
oligomerisation [2]: no change
expression_or_secretion, other: VWF:Ag, % of normal murine plasma [3]: no change

murine VWF (mVWF): S1487A
oligomerisation [2]: no change
expression_or_secretion, other: VWF:Ag, % of normal murine plasma [3]: no change

murine VWF (mVWF): T1248A
oligomerisation [2]: no change
expression_or_secretion, other: VWF:Ag, % of normal murine plasma [3]: no change

murine VWF (mVWF): T1248A/T1255A/T1256A (cluster 1)
oligomerisation [2]: no change
expression_or_secretion, other: VWF:Ag, % of normal murine plasma [3]: no change

murine VWF (mVWF): T1255A
other: thrombus formation on collagen under flow, other: platelet surface coverage [1]: decreases, 8.2±1.2 vs 15.8±0.9
oligomerisation [2]: no change
expression_or_secretion, other: VWF:Ag, % of normal murine plasma [3]: no change

murine VWF (mVWF): T1255A/T1256A
other: thrombus formation on collagen under flow, other: platelet surface coverage [1]: decreases, 6.0±0.9 vs 15.8±0.9
oligomerisation [2]: no change
localisation_or_trafficking [4]: no change
expression_or_secretion [5]: no change
degradation_or_half_life, half_life [6]: decreases, 3.0±0.3 vs 6.1±1
expression_or_secretion, other: VWF:Ag, % of normal murine plasma [3]: decreases, 432±55 vs 833±76

murine VWF (mVWF): T1256A
other: thrombus formation on collagen under flow, other: platelet surface coverage [1]: decreases, 6.4±1.2 vs 15.8±0.9
oligomerisation [2]: no change
expression_or_secretion, other: VWF:Ag, % of normal murine plasma [3]: no change

murine VWF (mVWF): T1468A
oligomerisation [2]: no change
expression_or_secretion, other: VWF:Ag, % of normal murine plasma [3]: no change

murine VWF (mVWF): T1468A/T1477A/S1486A/S1487A (cluster 2)
oligomerisation [2]: no change
expression_or_secretion, other: VWF:Ag, % of normal murine plasma [3]: no change

murine VWF (mVWF): T1477A
oligomerisation [2]: no change
expression_or_secretion, other: VWF:Ag, % of normal murine plasma [3]: no change

murine VWF (mVWF): T1679A
oligomerisation [2]: no change
expression_or_secretion, other: VWF:Ag, % of normal murine plasma [3]: no change

murine VWF (mVWF): T2298A
oligomerisation [2]: no change
expression_or_secretion, other: VWF:Ag, % of normal murine plasma [3]: no change
